In patent US8242083B2, “Kinase substrates” (PerkinElmer Health Sciences, Inc., priority 2008, dated 2012):

Experiments:
Assay type in all cases: biochemical
ROR2 = ROR2 (Homo sapiens, UniProt Q01974); assay: TR-FRET kinase assay, ROR2; settings: Kinase Concentration 20 nM; 50 nM ULight-labeled substrate, 200 micromolar ATP, 2 hours
Procedure: (§1) TR-FRET kinase assays are performed under standardized conditions: various individual kinases are incubated with 50 nM of kinase substrate BRB1 labeled with the TR-FRET acceptor dye ULight (PerkinElmer) and 200 micromolar ATP in 10 μL of kinase assay buffer (50 mM HEPES pH7.5, 10 mM MgCl2, 3 mM MnCl2, 1 mM EGTA, 2 mM DTT and 0.01% Tween-20) for 2 hours at room temperature. Reactions are stopped with EDTA, and anti-phospho-tyrosine antibodies (clone PT66) labeled with the TR-FRET europium chelate donor dye are added to a final concentration of 2 nM in a final volume of 20 μL. The TR-FRET signal emitted at 665 nm is read one hour after the addition of antibodies using a TR-FRET plate reader such as the Envision® Multilabel Plate reader (PerkinElmer). The emitted signal at 665 nm is proportional to the extent of peptide phosphorylation, Control reactions indicative of background are performed excluding ATP from the reaction.
(§2) Assay conditions are identical to those used described for FIG. 1.

EphB2 = biological target: T1, EphB2 (Homo sapiens, UniProt P29323); assay: TR-FRET kinase assay, EphB2; settings: Kinase Concentration 0.25 nM; 50 nM ULight-labeled substrate, 200 micromolar ATP, 2 hours
T1 sequence (P29323 19-1055): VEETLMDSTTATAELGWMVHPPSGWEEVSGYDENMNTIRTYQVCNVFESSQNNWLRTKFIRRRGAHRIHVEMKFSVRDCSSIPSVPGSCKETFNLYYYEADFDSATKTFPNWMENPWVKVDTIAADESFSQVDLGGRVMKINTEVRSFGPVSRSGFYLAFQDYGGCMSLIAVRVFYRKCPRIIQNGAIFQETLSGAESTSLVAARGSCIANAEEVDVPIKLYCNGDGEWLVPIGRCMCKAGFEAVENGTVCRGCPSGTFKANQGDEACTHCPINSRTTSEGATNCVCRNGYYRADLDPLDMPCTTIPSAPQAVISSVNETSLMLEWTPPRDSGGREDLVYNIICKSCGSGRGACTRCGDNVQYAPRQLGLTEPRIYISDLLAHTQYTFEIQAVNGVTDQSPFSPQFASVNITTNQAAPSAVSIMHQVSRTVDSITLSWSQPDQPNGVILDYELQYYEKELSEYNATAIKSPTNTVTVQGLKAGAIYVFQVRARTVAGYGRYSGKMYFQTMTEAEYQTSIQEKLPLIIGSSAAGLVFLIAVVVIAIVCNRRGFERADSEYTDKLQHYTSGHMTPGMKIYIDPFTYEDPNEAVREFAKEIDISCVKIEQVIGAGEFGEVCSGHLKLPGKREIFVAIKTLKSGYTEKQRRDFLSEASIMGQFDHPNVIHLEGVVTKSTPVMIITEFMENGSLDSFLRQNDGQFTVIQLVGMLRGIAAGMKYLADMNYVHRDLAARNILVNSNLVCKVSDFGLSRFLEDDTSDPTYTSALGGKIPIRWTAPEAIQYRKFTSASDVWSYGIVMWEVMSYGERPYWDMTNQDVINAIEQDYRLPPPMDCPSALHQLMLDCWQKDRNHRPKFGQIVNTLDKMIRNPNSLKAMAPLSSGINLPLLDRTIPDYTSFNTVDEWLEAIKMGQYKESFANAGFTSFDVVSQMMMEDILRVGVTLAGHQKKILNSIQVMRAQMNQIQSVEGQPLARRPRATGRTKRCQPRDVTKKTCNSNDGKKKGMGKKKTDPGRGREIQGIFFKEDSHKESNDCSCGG
Procedure: as §1, §2

TYK2 = TYK2 (Homo sapiens, UniProt P29597); assay: TR-FRET kinase assay, TYK2; settings: Kinase Concentration 4 nM; 50 nM ULight-labeled substrate, 200 micromolar ATP, 2 hours
Procedure: as §1, §2

ABL = ABL (Homo sapiens, UniProt P00519); assay: TR-FRET kinase assay, ABL; settings: Kinase Concentration 0.25 nM; 50 nM ULight-labeled substrate, 200 micromolar ATP, 2 hours
Procedure: as §1, §2

EphA7 = EphA7 (Homo sapiens, UniProt Q15375); assay: TR-FRET kinase assay, EphA7; settings: Kinase Concentration 0.5 nM; 50 nM ULight-labeled substrate, 200 micromolar ATP, 2 hours
Procedure: as §1, §2

MUSK = biological target: T2, MUSK (Homo sapiens, UniProt O15146); assay: TR-FRET kinase assay, MUSK; settings: Kinase Concentration 1 nM; 50 nM ULight-labeled substrate, 200 micromolar ATP, 2 hours
T2 sequence (O15146 24-869): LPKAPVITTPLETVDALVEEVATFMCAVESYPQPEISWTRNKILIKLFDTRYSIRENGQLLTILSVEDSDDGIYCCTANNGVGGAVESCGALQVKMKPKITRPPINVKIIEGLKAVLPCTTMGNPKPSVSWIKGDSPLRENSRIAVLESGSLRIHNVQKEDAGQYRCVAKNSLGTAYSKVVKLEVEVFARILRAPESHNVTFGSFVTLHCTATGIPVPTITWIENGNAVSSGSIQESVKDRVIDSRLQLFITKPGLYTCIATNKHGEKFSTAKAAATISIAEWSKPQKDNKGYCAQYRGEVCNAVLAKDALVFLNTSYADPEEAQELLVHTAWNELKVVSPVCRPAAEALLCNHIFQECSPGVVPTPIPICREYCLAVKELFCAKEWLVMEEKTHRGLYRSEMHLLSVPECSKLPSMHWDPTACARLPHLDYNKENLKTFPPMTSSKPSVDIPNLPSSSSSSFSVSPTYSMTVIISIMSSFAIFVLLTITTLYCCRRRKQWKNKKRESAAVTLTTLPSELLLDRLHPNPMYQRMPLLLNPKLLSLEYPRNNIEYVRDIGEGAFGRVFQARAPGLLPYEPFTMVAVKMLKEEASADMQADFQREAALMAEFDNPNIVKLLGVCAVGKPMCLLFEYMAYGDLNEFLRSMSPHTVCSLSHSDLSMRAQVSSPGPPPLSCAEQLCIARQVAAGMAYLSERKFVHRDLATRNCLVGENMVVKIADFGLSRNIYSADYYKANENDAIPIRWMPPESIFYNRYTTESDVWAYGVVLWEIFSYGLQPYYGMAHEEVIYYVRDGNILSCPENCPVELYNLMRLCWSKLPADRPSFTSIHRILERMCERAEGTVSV
Procedure: as §1, §2

FGFR1 = FGFR1 (Homo sapiens, UniProt P11362); assay: TR-FRET kinase assay, FGFR1; settings: Kinase Concentration 0.5 nM; 50 nM ULight-labeled substrate, 200 micromolar ATP, 2 hours
Procedure: as §1, §2

FGFR2 = FGFR2 (Homo sapiens, UniProt P21802); assay: TR-FRET kinase assay, FGFR2; settings: Kinase Concentration 0.25 nM; 50 nM ULight-labeled substrate, 200 micromolar ATP, 2 hours
Procedure: as §1, §2

FGFR4 = FGFR4 (Homo sapiens, UniProt P22455); assay: TR-FRET kinase assay, FGFR4; settings: Kinase Concentration 3 nM; 50 nM ULight-labeled substrate, 200 micromolar ATP, 2 hours
Procedure: as §1, §2

EGFR = EGFR (Homo sapiens, UniProt P00533); assay: TR-FRET kinase assay, EGFR; settings: Kinase Concentration 0.5 nM; 50 nM ULight-labeled substrate, 200 micromolar ATP, 2 hours
Procedure: as §1, §2

Chain of EphA7 (Q15375 28-998, species assumed): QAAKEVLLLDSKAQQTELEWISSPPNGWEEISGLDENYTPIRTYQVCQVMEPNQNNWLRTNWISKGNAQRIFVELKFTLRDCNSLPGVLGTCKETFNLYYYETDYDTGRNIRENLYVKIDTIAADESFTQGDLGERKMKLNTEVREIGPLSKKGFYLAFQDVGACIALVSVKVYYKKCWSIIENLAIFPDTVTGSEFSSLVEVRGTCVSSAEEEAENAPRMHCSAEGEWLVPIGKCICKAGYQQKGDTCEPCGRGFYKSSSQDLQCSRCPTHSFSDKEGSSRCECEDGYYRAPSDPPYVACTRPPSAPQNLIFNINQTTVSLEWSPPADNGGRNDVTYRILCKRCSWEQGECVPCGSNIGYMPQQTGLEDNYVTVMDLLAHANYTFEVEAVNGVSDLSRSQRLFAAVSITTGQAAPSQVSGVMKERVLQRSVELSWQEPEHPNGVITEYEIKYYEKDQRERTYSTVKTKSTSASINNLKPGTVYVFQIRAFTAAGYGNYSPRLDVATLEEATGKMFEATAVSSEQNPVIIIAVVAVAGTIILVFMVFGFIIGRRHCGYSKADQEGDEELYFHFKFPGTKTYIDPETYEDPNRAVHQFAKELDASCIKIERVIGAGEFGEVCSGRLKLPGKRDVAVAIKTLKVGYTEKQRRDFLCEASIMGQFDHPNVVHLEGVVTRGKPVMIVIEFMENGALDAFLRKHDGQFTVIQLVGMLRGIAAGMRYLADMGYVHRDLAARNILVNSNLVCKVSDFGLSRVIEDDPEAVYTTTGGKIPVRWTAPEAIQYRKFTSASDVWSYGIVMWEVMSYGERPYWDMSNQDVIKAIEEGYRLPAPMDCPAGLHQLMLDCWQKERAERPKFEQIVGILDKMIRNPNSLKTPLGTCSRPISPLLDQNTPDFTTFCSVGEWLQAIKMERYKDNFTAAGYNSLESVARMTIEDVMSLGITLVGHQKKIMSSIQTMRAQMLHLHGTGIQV
Chain of FGFR1 (P11362 22-822, species assumed): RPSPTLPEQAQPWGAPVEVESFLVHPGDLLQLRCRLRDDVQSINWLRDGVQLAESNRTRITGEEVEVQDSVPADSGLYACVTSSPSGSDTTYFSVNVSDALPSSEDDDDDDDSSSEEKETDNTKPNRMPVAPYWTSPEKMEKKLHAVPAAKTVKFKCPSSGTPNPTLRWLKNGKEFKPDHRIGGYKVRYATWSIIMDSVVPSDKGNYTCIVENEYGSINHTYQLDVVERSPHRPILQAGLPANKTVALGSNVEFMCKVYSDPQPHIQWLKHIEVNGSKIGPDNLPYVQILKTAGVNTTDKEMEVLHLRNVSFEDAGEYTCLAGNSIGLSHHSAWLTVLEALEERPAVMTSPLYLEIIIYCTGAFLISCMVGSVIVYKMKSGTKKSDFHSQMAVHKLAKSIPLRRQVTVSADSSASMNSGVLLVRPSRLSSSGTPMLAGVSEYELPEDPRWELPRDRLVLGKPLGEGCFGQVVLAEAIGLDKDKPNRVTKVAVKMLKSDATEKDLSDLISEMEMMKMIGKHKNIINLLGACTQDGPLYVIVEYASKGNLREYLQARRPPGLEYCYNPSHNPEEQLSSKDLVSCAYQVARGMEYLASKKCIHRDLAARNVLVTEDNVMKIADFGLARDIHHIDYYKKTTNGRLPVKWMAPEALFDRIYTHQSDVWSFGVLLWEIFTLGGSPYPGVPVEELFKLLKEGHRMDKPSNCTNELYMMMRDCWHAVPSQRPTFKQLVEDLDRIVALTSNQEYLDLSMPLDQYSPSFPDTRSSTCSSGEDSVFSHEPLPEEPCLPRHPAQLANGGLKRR
Chain of TYK2 (P29597 whole entry, species assumed): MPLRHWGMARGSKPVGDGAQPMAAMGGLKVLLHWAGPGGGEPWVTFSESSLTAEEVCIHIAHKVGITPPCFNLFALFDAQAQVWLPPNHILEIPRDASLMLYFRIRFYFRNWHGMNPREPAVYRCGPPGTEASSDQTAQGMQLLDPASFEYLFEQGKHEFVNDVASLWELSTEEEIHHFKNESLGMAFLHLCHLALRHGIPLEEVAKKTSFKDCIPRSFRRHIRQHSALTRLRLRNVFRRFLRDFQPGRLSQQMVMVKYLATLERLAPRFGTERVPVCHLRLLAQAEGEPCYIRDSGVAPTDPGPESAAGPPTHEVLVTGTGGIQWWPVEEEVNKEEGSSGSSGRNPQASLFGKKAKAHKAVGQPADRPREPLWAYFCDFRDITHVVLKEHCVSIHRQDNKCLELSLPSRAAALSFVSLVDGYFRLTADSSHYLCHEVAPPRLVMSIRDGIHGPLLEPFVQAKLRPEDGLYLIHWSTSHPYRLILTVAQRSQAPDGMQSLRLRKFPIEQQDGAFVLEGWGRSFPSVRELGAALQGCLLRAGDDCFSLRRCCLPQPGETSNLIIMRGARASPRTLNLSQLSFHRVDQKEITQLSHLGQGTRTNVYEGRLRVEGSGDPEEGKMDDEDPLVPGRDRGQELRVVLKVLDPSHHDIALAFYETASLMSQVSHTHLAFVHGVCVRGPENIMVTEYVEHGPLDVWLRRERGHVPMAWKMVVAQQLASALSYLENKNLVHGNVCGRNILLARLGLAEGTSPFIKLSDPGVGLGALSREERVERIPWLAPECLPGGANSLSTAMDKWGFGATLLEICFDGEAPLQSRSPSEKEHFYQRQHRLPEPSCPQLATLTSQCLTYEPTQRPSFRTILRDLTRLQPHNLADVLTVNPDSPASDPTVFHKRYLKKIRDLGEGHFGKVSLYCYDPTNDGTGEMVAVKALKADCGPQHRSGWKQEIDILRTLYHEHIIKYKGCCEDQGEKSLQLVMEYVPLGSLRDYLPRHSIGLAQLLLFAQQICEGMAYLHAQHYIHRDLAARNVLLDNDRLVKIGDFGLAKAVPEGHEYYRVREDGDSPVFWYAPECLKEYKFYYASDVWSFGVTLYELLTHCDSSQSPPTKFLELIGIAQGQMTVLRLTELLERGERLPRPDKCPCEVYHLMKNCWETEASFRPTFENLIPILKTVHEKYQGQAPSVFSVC
Chain of ABL (P00519 whole entry, species assumed): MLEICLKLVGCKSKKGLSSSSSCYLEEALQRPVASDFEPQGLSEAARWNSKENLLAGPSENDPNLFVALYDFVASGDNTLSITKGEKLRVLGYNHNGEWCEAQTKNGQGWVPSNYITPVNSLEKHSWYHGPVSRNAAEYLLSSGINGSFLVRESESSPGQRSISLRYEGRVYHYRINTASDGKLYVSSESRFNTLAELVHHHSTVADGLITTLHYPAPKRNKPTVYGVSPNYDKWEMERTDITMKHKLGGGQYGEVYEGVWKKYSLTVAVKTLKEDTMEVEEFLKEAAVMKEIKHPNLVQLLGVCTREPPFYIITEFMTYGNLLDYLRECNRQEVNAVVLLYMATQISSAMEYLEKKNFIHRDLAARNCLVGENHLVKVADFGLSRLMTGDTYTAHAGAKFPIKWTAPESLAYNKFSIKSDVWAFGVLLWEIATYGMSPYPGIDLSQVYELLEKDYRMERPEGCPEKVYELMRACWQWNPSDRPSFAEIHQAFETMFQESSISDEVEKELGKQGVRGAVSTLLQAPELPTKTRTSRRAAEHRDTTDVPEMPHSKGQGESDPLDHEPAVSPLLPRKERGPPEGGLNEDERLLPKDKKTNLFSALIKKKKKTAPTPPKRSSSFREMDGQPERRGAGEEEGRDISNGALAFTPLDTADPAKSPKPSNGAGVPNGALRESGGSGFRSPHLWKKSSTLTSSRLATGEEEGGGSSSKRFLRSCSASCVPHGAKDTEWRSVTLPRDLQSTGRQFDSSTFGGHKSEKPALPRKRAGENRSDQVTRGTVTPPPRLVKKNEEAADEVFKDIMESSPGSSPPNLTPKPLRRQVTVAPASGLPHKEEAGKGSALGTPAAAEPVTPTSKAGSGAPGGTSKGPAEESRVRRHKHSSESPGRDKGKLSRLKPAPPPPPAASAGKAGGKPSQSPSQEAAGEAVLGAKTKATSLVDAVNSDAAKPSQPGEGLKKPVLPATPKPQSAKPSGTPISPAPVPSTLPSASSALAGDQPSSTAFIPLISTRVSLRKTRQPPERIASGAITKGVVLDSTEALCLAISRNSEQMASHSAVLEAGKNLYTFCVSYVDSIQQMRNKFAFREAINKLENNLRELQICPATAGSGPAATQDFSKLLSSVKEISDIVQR

Question: What does the source list for “C AYE AYE AYE K EYA EYA EYA K AYA EYE R (CAYEAYEAYEKEYAEYAEYAKAYAEYER; tyrosine kinase substrate peptide) [BRB1]”?
Answer: Signal to Noise ratio with BRB1 Peptide (ROR2): 1.0; Signal to Noise ratio with BRB1 Peptide (EphB2): 28.8; Signal to Noise ratio with BRB1 Peptide (TYK2): 7.3; Signal to Noise ratio with BRB1 Peptide (ABL): 4.1; Signal to Noise ratio with BRB1 Peptide (EphA7): 17.2; Signal to Noise ratio with BRB1 Peptide (MUSK): 3.1; Signal to Noise ratio with BRB1 Peptide (FGFR1): 26.4; Signal to Noise ratio with BRB1 Peptide (FGFR2): 27.1; Signal to Noise ratio with BRB1 Peptide (FGFR4): 17.7; Signal to Noise ratio with BRB1 Peptide (EGFR): 10.0
